Where two headings read alike, the source gives them in different places.

The target of series [1] is T1, LPETG (Abz-LPETGK(Dnp)-CONH2) (Staphylococcus aureus, UniProt Q2FV99, D160N/D165A/K190E/K196T/P94R).
T1 construct: All expressed sortases lack the N-terminal 59 amino acids; inferred from Ni-NTA purification; made in house; host or cells: E. coli BL21 (DE3), pET29
T1 sequence (Q2FV99 60-206 P94R/D160N/D165A/G167E/K190E/K196T): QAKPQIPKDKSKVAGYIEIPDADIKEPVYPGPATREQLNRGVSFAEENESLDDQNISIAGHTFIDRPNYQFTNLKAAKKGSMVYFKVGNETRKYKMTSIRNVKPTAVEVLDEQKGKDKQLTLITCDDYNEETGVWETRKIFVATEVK
The experiment in a line: In vitro sortase kinetics HPLC assay, LPETG substrate. Format: biochemical. The conditions noted are these: cognate LPETG substrate. The essentials:
(§1)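 Abz-LXEXGK(Dnp) peptides in 300 mM Tris pH 7.5, 150 mM NaCl, 5 mM CaCl2, 5% DMSO, GGG; 22.5° C., acid-quenched, converted fraction by reverse-phase HPLC peak areas. kcat and Km from eight substrate concentrations fit to Michaelis-Menten; KH at 1 mM substrate over eight GGG levels.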

The target of series [2] is T2, LPESG (Abz-LPESGK(Dnp)-CONH2) (Staphylococcus aureus, UniProt Q2FV99, D160N/D165A/K190E/K196T/P94R).
T2 construct: All expressed sortases lack the N-terminal 59 amino acids; inferred from Ni-NTA purification; made in house; host or cells: E. coli BL21 (DE3), pET29
T2 sequence (Q2FV99 60-206 P94R/D160N/D165A/G167E/K190E/K196T): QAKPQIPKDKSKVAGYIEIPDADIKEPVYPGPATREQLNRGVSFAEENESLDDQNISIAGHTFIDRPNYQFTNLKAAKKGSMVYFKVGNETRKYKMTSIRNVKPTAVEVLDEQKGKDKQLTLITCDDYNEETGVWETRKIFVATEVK
The experiment in a line: In vitro sortase kinetics HPLC assay, LPESG substrate. Format: biochemical. The settings on record: ratio of kcat/KM. The essentials:
as §1

For series [3], the system named is LPETG (Abz-LPETGK(Dnp)-CONH2). The settings on record: cited from earlier work.
In series [4] the target is T3, LAETG (Abz-LAETGK(Dnp)-CONH2) (Staphylococcus aureus, UniProt Q2FV99, D160N/D165A/K190E/K196T/P94R).
T3 construct: All expressed sortases lack the N-terminal 59 amino acids; inferred from Ni-NTA purification; made in house; host or cells: E. coli BL21 (DE3), pET29
T3 sequence (Q2FV99 60-206 P94R/D160N/D165A/G167E/K190E/K196T): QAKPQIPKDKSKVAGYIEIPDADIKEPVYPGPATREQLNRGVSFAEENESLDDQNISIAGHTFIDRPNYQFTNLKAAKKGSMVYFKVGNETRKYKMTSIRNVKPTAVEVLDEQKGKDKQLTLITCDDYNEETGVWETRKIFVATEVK
The experiment in a line: In vitro sortase kinetics HPLC assay, LAETG substrate. Format: biochemical. The settings on record: candidate LAETG target. The essentials:
as §1

The target of the next series is T4, LRETG (Staphylococcus aureus, UniProt Q2FV99, A104H/D160K/D165A/E105D/I182V/K138P/K152I/K162H/K173E/K190E/K196S/P94R/S102C/T164N).
T4 construct: All expressed sortases lack the N-terminal 59 amino acids; inferred from Ni-NTA purification; made in house; host or cells: E. coli BL21 (DE3), pET29
T4 sequence (Q2FV99 60-206 P94R/S102C/A104H/E105D/K138P/K152I/D160K/K162H/T164N/D165A/G167E/K173E/I182V/K190E/K196S): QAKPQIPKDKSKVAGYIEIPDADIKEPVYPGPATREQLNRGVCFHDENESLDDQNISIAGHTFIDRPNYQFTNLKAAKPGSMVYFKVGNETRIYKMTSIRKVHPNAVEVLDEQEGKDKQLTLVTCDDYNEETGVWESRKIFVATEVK
The experiment in a line: In vitro sortase kinetics HPLC assay, LRETG substrate. The class given is biochemical. Here is the method:
See below for details on sortase expression and purification, and on the synthesis of Abz-LPETGK(Dnp)-CONH2 (SEQ ID NO: 19). […] Reactions were initiated with the addition of enzyme and incubated at 22.5° C. for 3 to 20 minutes before quenching with 0.5 volumes of 1 M HCl. Five to ten nmol of peptide from the quenched reactions were injected onto an analytical reverse-phase Eclipse XDB-C18 HPLC column (4.6×150 mm, 5 μm, Agilent Technologies) and chromatographed using a gradient of 10 to 65% acetonitrile with 0.1% TFA in 0.1% aqueous TFA over 13 minutes. Retention times under these conditions for the Abz-LPETGK(Dnp)-CONH2 (SEQ ID NO: 19) substrate, the released GKDnp peptide, and the Abz-LPETGGG-COOH (SEQ ID NO: 20) product were 12.8, 10.4, and 9.1 min, respectively. To calculate the percent conversion, the ratio of the integrated areas of the Abz-LPETGGG-COOH (SEQ ID NO: 20) and Abz-LPETGK(Dnp)-CONH2 (SEQ ID NO: 19) peptide Abs220 peaks was compared to a standard curve generated by mixing the product and starting peptide in known ratios. To determine […] and Km, reaction rates were fit to the Michaelis-Menten equation using OriginPro 7.0 software. All kinetics values reported represent the average of at least three measurements. Percent conversion was also calculated by using the ratio of the integrated areas of the GK(Dnp)-CONH2 and Abz-LPETGK(Dnp)-CONH2 peptide Abs355 peaks were compared directly (Example 5). To determine kcat and Km, LPETG, reaction rates were fit to the Michaelis-Menten equation using Microsoft Excel using the Solver add-in. To determine Km,GGG and KH, reaction rates were fit to the modified Michaelis-Menten, for which KH is as defined when KH<<Km,GGG.
Assays to determine eSrtA, eSrtA(2A-9) and eSrtA(4S-9) specificity were performed by preparing 10 μM stocks of Abz-LXEXGK(Dnp) (SEQ ID NO: 75) peptides in 300 mM Tris pH 7.5, 150 mM NaCl, 5 mM CaCl2, 5% v/v DMSO, and 100 mM Gly-Gly-Gly-COOH (GGG). Reactions were performed by adding eSrtA(2A-9) to a final concentration of 450 nM, eSrtA(4S-9) to a final concentration of 115 nM or eSrtA to a final concentration of 47.5 nM and a final volume of 100 μL, then incubating at 22.5° C. for 15 minutes. Reactions were quenched by the addition of 0.2 volumes of 5 M HCl, then were injected onto an analytical reverse-phase Eclipse XDB-C18 HPLC column (4.6×150 mm, 5 μm, Agilent Technologies) and chromatographed using a gradient of 10 to 65% acetonitrile with 0.1% TFA in 0.1% aqueous TFA over 13 minutes. […]

B1: eSrtA (protein)
chain: QAKPQIPKDKSKVAGYIEIPDADIKEPVYPGPATREQLNRGVSFAEENESLDDQNISIAGHTFIDRPNYQFTNLKAAKKGSMVYFKVGNETRKYKMTSIRNVKPTAVEVLDEQKGKDKQLTLITCDDYNEETGVWETRKIFVATEVK
By Km is commonly meant the concentration of substrate that gives half-maximal velocity. On to B1, for which the Km in series [1] came to 200 µM; in series [4], 6100 µM. Further, the “preference for LPETG over LPESG” value in series [2] is given as 5 fold. Moreover, the “higher catalytic activity relative to wild-type SrtA” value in series [3] is “approximately 140 fold”.

B2: eSrtA(2A-9): P94R, S102C, A104H, E105D, K138P, K152I, N160K, K162H, T164N, D165A, K173E, I182V, K190E, T196S (protein)
chain: QAKPQIPKDKSKVAGYIEIPDADIKEPVYPGPATREQLNRGVCFHDENESLDDQNISIAGHTFIDRPNYQFTNLKAAKPGSMVYFKVGNETRIYKMTSIRKVHPNAVEVLDEQEGKDKQLTLVTCDDYNEETGVWESRKIFVATEVK
As for B2, in the series with LRETG (1 mM LRETG), the “KH” value turned out to be 47.5 ± 1.3 µM. Besides, the Km is 628 ± 11 µM in the series with LRETG (1 mM LRETG, read-out: Km,GGG) and 1070 ± 63 µM with LRETG (Sub LRETG, 100 mM GGG, read-out: Km). Further, in the series with LRETG (Sub LRETG, 100 mM GGG), the “Kcat (Hz)” value amounted to 0.25 ± 0.02 Hz.

The record behind these values is patent US10202593B2, “Evolved sortases and uses thereof” (President and Fellows of Harvard College, priority 2013, dated 2019).
